Test results: paper PMC11329664

Molecular target: Alexa Fluor 488-conjugated human CD40-CA-His12 (ectodomain of human CD40) (human)
Assay: scanning fluorescence correlation spectroscopy with brightness-transit statistics (sFCS BTS); CD40-AF488-His tethered through Ni-NTA-DGS to a BSA-blocked supported lipid bilayer, titrated to higher surface densities (100 and 175 molecules/µm^2); brightness and transit time compared with the monomeric control AF488-His; 24 °C

**Q.** How did the stoichiometry N turn out when “Alexa Fluor 488-conjugated human CD40-CA-His12 (ectodomain of human CD40) (domain or fragment)” was run?
**A.** > 2
